Assay in all cases: intrinsic tryptophan fluorescence titration; no ATP; Fluorescence titration (ex 295 nm, em 340 nm), one-site saturation fit; buffer, salt, pH and temperature not given in the material. Wild-type ADAAD Kd values are cited from ref 24 and not listed
Conditions in all cases: protein: recombinant; tags: His (Ni-NTA, pET-14b); hairpin

The target in one data set is T1, ADAAD S558A (Bos taurus (bovine), UniProt Q9TTA5 221-940, S778A).
T1 sequence: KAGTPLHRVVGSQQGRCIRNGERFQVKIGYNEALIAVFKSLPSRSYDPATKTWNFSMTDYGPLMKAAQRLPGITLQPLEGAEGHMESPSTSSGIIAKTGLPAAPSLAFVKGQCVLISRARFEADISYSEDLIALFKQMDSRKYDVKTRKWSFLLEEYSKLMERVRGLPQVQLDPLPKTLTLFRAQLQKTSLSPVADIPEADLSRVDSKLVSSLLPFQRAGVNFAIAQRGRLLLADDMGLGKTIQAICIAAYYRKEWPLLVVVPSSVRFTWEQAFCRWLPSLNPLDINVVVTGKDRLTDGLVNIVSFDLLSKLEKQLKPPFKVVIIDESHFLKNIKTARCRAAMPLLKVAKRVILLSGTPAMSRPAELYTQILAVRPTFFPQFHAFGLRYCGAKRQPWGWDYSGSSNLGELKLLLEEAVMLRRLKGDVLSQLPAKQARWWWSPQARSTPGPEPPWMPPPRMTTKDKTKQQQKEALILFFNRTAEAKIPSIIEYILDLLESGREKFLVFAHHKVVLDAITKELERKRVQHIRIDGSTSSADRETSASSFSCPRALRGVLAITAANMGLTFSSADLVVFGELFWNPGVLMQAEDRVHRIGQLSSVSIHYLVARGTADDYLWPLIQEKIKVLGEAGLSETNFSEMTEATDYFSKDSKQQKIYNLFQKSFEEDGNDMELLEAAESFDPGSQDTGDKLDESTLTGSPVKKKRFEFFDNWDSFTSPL

Another data set concerns the target T2, ADAAD H329D/D591H (Bos taurus (bovine), UniProt Q9TTA5 221-940, H549D;D811H).
T2 sequence: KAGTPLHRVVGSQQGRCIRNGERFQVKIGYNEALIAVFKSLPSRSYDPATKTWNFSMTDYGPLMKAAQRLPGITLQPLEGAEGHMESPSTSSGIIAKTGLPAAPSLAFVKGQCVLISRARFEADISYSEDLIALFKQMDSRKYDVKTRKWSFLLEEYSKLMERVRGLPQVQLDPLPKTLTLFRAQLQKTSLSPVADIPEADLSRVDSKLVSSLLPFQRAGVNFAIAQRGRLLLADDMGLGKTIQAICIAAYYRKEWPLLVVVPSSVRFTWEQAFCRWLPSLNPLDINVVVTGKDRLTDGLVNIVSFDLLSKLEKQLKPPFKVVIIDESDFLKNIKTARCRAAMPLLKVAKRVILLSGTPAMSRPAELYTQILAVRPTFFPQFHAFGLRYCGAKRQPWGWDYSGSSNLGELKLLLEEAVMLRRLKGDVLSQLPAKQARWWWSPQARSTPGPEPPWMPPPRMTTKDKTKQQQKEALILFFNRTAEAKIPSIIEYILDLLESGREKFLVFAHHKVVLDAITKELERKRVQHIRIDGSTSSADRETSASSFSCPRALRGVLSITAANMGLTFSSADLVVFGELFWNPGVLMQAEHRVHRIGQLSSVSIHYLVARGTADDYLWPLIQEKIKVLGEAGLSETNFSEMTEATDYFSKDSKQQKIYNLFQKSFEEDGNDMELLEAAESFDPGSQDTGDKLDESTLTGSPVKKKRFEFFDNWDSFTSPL

The next data set concerns the target T3, ADAAD F507A/R592A (Bos taurus (bovine), UniProt Q9TTA5 221-940, F727A;R812A).
T3 sequence: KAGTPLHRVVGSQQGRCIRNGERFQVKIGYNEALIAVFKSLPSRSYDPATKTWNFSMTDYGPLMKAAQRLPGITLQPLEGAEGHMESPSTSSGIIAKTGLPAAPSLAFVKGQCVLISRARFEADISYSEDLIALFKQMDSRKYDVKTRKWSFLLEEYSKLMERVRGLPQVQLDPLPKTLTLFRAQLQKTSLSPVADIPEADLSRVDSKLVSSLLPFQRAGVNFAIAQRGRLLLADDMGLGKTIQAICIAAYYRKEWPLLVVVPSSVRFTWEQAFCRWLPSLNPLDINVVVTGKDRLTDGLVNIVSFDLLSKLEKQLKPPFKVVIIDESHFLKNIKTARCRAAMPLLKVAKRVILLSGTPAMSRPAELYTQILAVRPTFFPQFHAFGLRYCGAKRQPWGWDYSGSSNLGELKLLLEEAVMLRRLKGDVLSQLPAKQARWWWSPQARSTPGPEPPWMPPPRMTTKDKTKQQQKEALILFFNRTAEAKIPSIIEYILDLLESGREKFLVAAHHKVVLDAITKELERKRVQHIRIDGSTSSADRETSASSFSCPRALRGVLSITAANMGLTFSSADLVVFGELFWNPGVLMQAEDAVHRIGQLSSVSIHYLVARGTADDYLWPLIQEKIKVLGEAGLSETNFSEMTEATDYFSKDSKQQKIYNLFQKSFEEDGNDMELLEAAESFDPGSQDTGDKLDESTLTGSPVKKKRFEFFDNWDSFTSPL

For orientation: Kd means a measure of binding affinity in units of concentration. As for GCGCAATTGCGCTCGACGATTTTTTAGCGCAATTGCGC (structured_DNA) [slDNA (stem-loop DNA)], the values for the Kd with ADAAD S558A, in the data set with ADAAD H329D/D591H and with ADAAD F507A/R592A were 11 ± 2.7 nM, 16.1 ± 5.7 nM and 27.8 ± 3.6 nM, respectively.

For the origin of these results see PMC6019379, “RecA-like domain 2 of DNA-dependent ATPase A domain, a SWI2/SNF2 protein, mediates conformational integrity and ATP hydrolysis” (Bioscience Reports, 2018).
